Measurements reported in paper PMC6283856 (2018).

B1: ubiquitin-specific peptidase 17 (USP17), wild type [not stated] / TNFR-associated factor 3 (TRAF3) [not stated] (parent complex)
chain 1: MEDDSLYLGGEWQFNHFSKLTSSRPDAAFAEIQRTSLPEKSPLSSEARVDLCDDLAPVARQLAPRKKLPLSSRRPAAVGAGLQNMGNTCYENASLQCLTYTPPLANYMLSREHSQTCQRPKCCMLCTMQAHITWALHSPGHVIQPSQALAAGFHRGKQEDAHEFLMFTVDAMKKACLPGHKQVDHHSKDTTLIHQIFGGCWRSQIKCLHCHGISDTFDPYLDIALDIQAAQSVKQALEQLVKPEELNGENAYHCGLCLQRAPASKTLTLHTSAKVLILVLKRFSDVTGNKLAKNVQYPECLDMQPYMSQQNTGPLVYVLYAVLVHAGWSCHDGHYFSYVKAQEGQWYKMDDAKVTACSITSVLSQQAYVLFYIQKSEWERHSESVSRGREPRALGAEDTDRRATQGELKRDHPCLQAPELDERLVERATQESTLDHWKFPQEQNKTKPEFNVRKVEGTLPPNVLVIHQSKYKCGMKNHHPEQQSSLLNLSSTTRTDQESVNTGTLASLQGRTRRSKGKNKHSKRALLVCQ
chain 2: MESSKKMDSPGALQTNPPLKLHTDRSAGTPVFVPEQGGYKEKFVKTVEDKYKCEKCHLVLCSPKQTECGHRFCESCMAALLSSSSPKCTACQESIVKDKVFKDNCCKREILALQIYCRNESRGCAEQLMLGHLLVHLKNDCHFEELPCVRPDCKEKVLRKDLRDHVEKACKYREATCSHCKSQVPMIALQKHEDTDCPCVVVSCPHKCSVQTLLRSELSAHLSECVNAPSTCSFKRYGCVFQGTNQQIKAHEASSAVQHVNLLKEWSNSLEKKVSLLQNESVEKNKSIQSLHNQICSFEIEIERQKEMLRNNESKILHLQRVIDSQAEKLKELDKEIRPFRQNWEEADSMKSSVESLQNRVTELESVDKSAGQVARNTGLLESQLSRHDQMLSVHDIRLADMDLRFQVLETASYNGVLIWKIRDYKRRKQEAVMGKTLSLYSQPFYTGYFGYKMCARVYLNGDGMGKGTHLSLFFVIMRGEYDALLPWPFKQKVTLMLMDQGSSRRHLGDAFKPDPNSSSFKKPTGEMNIASGCPVFVAQTVLENGTYIKDDTIFIKVIVDTSDLPDP
B2: ubiquitin-specific peptidase 17 (USP17), wild type [not stated] / TNFR-associated factor 2 (TRAF2) [not stated] (parent complex)
chain 1: B1 chain 1
chain 2: MAAASVTPPGSLELLQPGFSKTLLGTKLEAKYLCSACRNVLRRPFQAQCGHRYCSFCLASILSSGPQNCAACVHEGIYEEGISILESSSAFPDNAARREVESLPAVCPSDGCTWKGTLKEYESCHEGRCPLMLTECPACKGLVRLGEKERHLEHECPERSLSCRHCRAPCCGADVKAHHEVCPKFPLTCDGCGKKKIPREKFQDHVKTCGKCRVPCRFHAIGCLETVEGEKQQEHEVQWLREHLAMLLSSVLEAKPLLGDQSHAGSELLQRCESLEKKTATFENIVCVLNREVERVAMTAEACSRQHRLDQDKIEALSSKVQQLERSIGLKDLAMADLEQKVLEMEASTYDGVFIWKISDFARKRQEAVAGRIPAIFSPAFYTSRYGYKMCLRIYLNGDGTGRGTHLSLFFVVMKGPNDALLRWPFNQKVTLMLLDQNNREHVIDAFRPDVTSSSFQRPVNDMNIASGCPLFCPVSKMEAKNSYVRDDAIFIKAIVDLTGL

Variants of: B1
Test: co-immunoprecipitation (IP: Myc, IB: Flag) with band quantification; coexpressed in HEK293 cells; parent: 100; read off a plot

percent of parent [%] | Variant
~38 | chain 1 MEDDSLYLGGEWQFNHFSKLTSSRPDAAFAEIQRTSLPEKSPLSSEARVDLCDDLAPVARQLAPRKKLPLSSRRPAAVGAGLQNMGNTCYENASLQCLTYTPPLANYMLSREHSQTCQRPKCCMLCTMQAHITWALHSPGHVIQPSQALAAGFHRGKQEDAHEFLMFTVDAMKKACLPGHKQVDHHSKDTTLIHQIFGGCWRSQIKCLHCHGISDTFDPYLDIALDIQAAQSVKQALEQLVKPEELNGENAYHCGLCLQRAPASKTLTLHTSAKVLILVLKRFSDVTGNKLAKNVQYPECLDMQPYMSQQNTGPLVYVLYAVLVHAGWSCHDGHYFSYVKAQEGQWYKMDDAKVTACSITSVLSQQAYVLFYIQKSEWERHSESVSRGREPRALGAEDTDRRATQGELKRDHPCLQAPELDERLVERATQESTLDHWKFPQEQNKTKPEFNVRKVEGTLPPNVLVIHQSKYKCGMKNHHPEQQLSLLNLSSTTRTDQESVNTGTLASLQGRTRRSKGKNKHSKRALLVCQ [chain 1 S484L]
~30 | chain 1 MEDDSLYLGGEWQFNHFSKLTSSRPDAAFAEIQRTSLPEKSPLSSEARVDLCDDLAPVARQLAPRKKLPLSSRRPAAVGAGLQNMGNTCYENASLQCLTYTPPLANYMLSREHSQTCQRPKCCMLCTMQAHITWALHSPGHVIQPSQALAAGFHRGKQEDAHEFLMFTVDAMKKACLPGHKQVDHHSKDTTLIHQIFGGCWRSQIKCLHCHGISDTFDPYLDIALDIQAAQSVKQALEQLVKPEELNGENAYHCGLCLQRAPASKTLTLHTSAKVLILVLKRFSDVTGNKLAKNVQYPECLDMQPYMSQQNTGPLVYVLYAVLVHAGWSCHDGHYFSYVKAQEGQWYKMDDAKVTACSITSVLSQQAYVLFYIQKSEWERHSESVSRGREPRALGAEDTDRRATQGELKRDHPCLQAPELDERLVERATQESTLDHWKFPQEQNKTKPEFNVRKVEGTLPPNVLVIHQSKYKCGMKNHHPERQSSLLNLSSTTRTDQESVNTGTLASLQGRTRRSKGKNKHSKRALLVCQ [chain 1 Q482R]
~68 | chain 1 MEDDSLYLGGEWQFNHFSKLTSSRPDAAFAEIQRTSLPEKSPLSSEARVDLCDDLAPVARQLAPRKKLPLSSRRPAAVGAGLQNMGNTCYENASLQCLTYTPPLANYMLSREHSQTCQRPKCCMLCTMQAHITWALHSPGHVIQPSQALAAGFHRGKQEDAHEFLMFTVDAMKKACLPGHKQVDHHSKDTTLIHQIFGGCWRSQIKCLHCHGISDTFDPYLDIALDIQAAQSVKQALEQLVKPEELNGENAYHCGLCLQRAPASKTLTLHTSAKVLILVLKRFSDVTGNKLAKNVQYPECLDMQPYMSQQNTGPLVYVLYAVLVHAGWSCHDGHYFSYVKAQEGQWYKMDDAKVTACSITSVLSQQAYVLFYIQKSEWERHSESVSRGREPRALGAEDTDRRATQGELKRDHPCLQAPELDERLVERATQESTLDHWKFPQEQNKTKPEFNVRKVEGTLPPNVLVIHQSKYKCGMKNHHLEQQSSLLNLSSTTRTDQESVNTGTLASLQGRTRRSKGKNKHSKRALLVCQ [chain 1 P480L]

Variants of: B2
Test: as above

percent of parent [%] | Variant
~37 | chain 1 MEDDSLYLGGEWQFNHFSKLTSSRPDAAFAEIQRTSLPEKSPLSSEARVDLCDDLAPVARQLAPRKKLPLSSRRPAAVGAGLQNMGNTCYENASLQCLTYTPPLANYMLSREHSQTCQRPKCCMLCTMQAHITWALHSPGHVIQPSQALAAGFHRGKQEDAHEFLMFTVDAMKKACLPGHKQVDHHSKDTTLIHQIFGGCWRSQIKCLHCHGISDTFDPYLDIALDIQAAQSVKQALEQLVKPEELNGENAYHCGLCLQRAPASKTLTLHTSAKVLILVLKRFSDVTGNKLAKNVQYPECLDMQPYMSQQNTGPLVYVLYAVLVHAGWSCHDGHYFSYVKAQEGQWYKMDDAKVTACSITSVLSQQAYVLFYIQKSEWERHSESVSRGREPRALGAEDTDRRATQGELKRDHPCLQAPELDERLVERATQESTLDHWKFPQEQNKTKPEFNVRKVEGTLPPNVLVIHQSKYKCGMKNHHPERQSSLLNLSSTTRTDQESVNTGTLASLQGRTRRSKGKNKHSKRALLVCQ [chain 1 Q482R]
~79 | chain 1 MEDDSLYLGGEWQFNHFSKLTSSRPDAAFAEIQRTSLPEKSPLSSEARVDLCDDLAPVARQLAPRKKLPLSSRRPAAVGAGLQNMGNTCYENASLQCLTYTPPLANYMLSREHSQTCQRPKCCMLCTMQAHITWALHSPGHVIQPSQALAAGFHRGKQEDAHEFLMFTVDAMKKACLPGHKQVDHHSKDTTLIHQIFGGCWRSQIKCLHCHGISDTFDPYLDIALDIQAAQSVKQALEQLVKPEELNGENAYHCGLCLQRAPASKTLTLHTSAKVLILVLKRFSDVTGNKLAKNVQYPECLDMQPYMSQQNTGPLVYVLYAVLVHAGWSCHDGHYFSYVKAQEGQWYKMDDAKVTACSITSVLSQQAYVLFYIQKSEWERHSESVSRGREPRALGAEDTDRRATQGELKRDHPCLQAPELDERLVERVTQESTLDHWKFPQEQNKTKPEFNVRKVEGTLPPNVLVIHQSKYKCGMKNHHPEQQSSLLNLSSTTRTDQESVNTGTLASLQGRTRRSKGKNKHSKRALLVCQ [chain 1 A428V]
~29 | chain 1 MEDDSLYLGGEWQFNHFSKLTSSRPDAAFAEIQRTSLPEKSPLSSEARVDLCDDLAPVARQLAPRKKLPLSSRRPAAVGAGLQNMGNTCYENASLQCLTYTPPLANYMLSREHSQTCQRPKCCMLCTMQAHITWALHSPGHVIQPSQALAAGFHRGKQEDAHEFLMFTVDAMKKACLPGHKQVDHHSKDTTLIHQIFGGCWRSQIKCLHCHGISDTFDPYLDIALDIQAAQSVKQALEQLVKPEELNGENAYHCGLCLQRAPASKTLTLHTSAKVLILVLKRFSDVTGNKLAKNVQYPECLDMQPYMSQQNTGPLVYVLYAVLVHAGWSCHDGHYFSYVKAQEGQWYKMDDAKVTACSITSVLSQQAYVLFYIQKSEWERHSESVSRGREPRALGAEDTDRRATQGELKRDHPCLQAPELDERLVERATQASTLDHWKFPQEQNKTKPEFNVRKVEGTLPPNVLVIHQSKYKCGMKNHHPEQQSSLLNLSSTTRTDQESVNTGTLASLQGRTRRSKGKNKHSKRALLVCQ [chain 1 E431A]
